Molecular target: human NKG2A (human, UniProt P26715 94-233, limits assumed)
Assay: not stated; drawn table 'Binding affinity of anti-NKG2A scFv to human NKG2A', column 'Binding affinity, KD (M)'

Sequence of human NKG2A (P26715 94-233 limits assumed): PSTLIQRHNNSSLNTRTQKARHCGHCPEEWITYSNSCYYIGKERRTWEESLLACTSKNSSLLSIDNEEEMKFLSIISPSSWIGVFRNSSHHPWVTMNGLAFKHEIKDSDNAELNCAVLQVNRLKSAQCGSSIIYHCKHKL

Kd: 66.5 pM
B1: murine anti-NKG2A scFv (scFv)
scFv: QVQLQQPGAELVRPGASVKLSCKASGYTFTSYWMNWVKQRPEQGLQWIGRIDPYDSETHYSQKFKDKAILTVDKSSSTAYMRLSSLTSEDSAVYYCARGGYDFDVGTLYWFFDVWGAGTTVTVSSGGSTRSSSSGGGGSGGGGDIQMTQSPASLSASVGETVTITCRASENIYSYLAWYQQKQGKSPQFLVYNAKTLAEGVPSRFSGSGSGTQFSLKINSLQPEDFGSYYCQHHYGTPRTFGGGTKLEIKAAAHHHHHHHH
notes: Derived from the VH and VL of murine antibody Z270 (U.S. Pat. No. 9,683,041), expressed in Hi5 cells, purified on Ni-NTA; also called αNKG2A-scFv
